Assay results reported in the nanobody polyreactivity screen of Harvey et al. (2022).

Test: yeast display, Sf9 membrane polyspecificity reagent, FACS + sequencing; frameworks hold sequencing errors
How it was run: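 Using colony PCR, genes from sorted yeast display clones were amplified, then sequenced on MiSeq at 2 × 250 and filtered by CDR length. The clones had been stained with 10% biotinylated, detergent-solubilized Sf9 membrane reagent for 1 hour at 4 °C and sorted by FACS into low and high (top ~1%) gates on anti-HA and streptavidin fluorescence. Polyreactivity labels come from the gate of origin.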

| Sequence | polyreactivity (PSR sort gate) |
| --- | --- |
| QVQLVESGAGLVQAGGSLRLSCAASGFIFYYYAMGRYRPAPGKERELVAAIDSSGGDTYFADSVKGRFSISRDHAKNTVYLQMNSLKPEDTAVYYCNARQRLISLYGNRLTYGYWGQGTQVTVSS | high polyreactivity |
| QVQLVESGGGLVQAGGSLRLSCAASGRIIYRNAMGWSRQSPGKEREMVATITKNGGATYYADSVKGRFTISRDNAKNTVYLQMNTLKPEDTAVYYCATGSRGYKASPQWRDYWGQGTQVTVSS | high polyreactivity |
| QVQLVESGGGLVQAGGSLRLSCAASGSIFTSNAMGWYRQAPGKERELVAVISRRGGSTYYADSVKGRFTISRDNAKNTVYLQMNSLKPEDTAVYYCARRPYSYTRYEYWGQGTQVTVSS | low polyreactivity |
| QVQLQESGGGLVQAGGSLRLSCAASGYISTWYPMGWYRQAPGKEREFVATIAPGATTYYADSVKGRFTISRDYAKNSVYLQMNSLKPEDTAVYYCAAGPENNDFYSYWGQGTQVTVSS | low polyreactivity |
| QVQLQESGGGLVQAGGSLRPLCAAGGTIFVSVNMRLYRHAPGEEREFVASITQGATTNYADSLIGRFTISRDNAKNTVYLLMNCQKPEDTEVYYCAVHESGGITFTYWGQGTQVTVSS | high polyreactivity |
| QVQLVESGGGLVQAGGSLRLSCAASGRIFGIYAMGWYRQAPGKERELVATITDSDDSTYYADSVKGRFTISRDNAKNTVYLQMNSLKPEDTAVYYCAAADGIYARYFFSRFPRFDYWGQGTQVTVSS | low polyreactivity |
| QVQLVESGGGLVQAGGSLRLSCAASGSTFYTYVMGWYRQAPGKERELVAAISSGGGNTYYADTVTGRFTISRDHGKNTVYLQMNSLKPEDTAVYYCAAETFRWSDYDYWGQGTQVTVSS | high polyreactivity |
| QVQLVESGGGLVQAGGSLRLSCAASGRIFSFYVMGWYRQEPGKERELVAAIDNGGGSTYYADSVKGRFTISRDNAKNTVYLQMNSLKPEDTAVYYCAAEVYDSDSEYYYWGQGTQVTVSS | low polyreactivity |
| QVQLVESGGGLVQAGGSLRLSCAASGSTFRGYAMGRYRQAPGKERELVAAITRNGGSTYYADSVKGRFTISRDNAKNTVYLQMNSLKPEDTAVFYCAAAKRRTVGVKYTFDYWGQGTQVTVSS | high polyreactivity |
| QVQLVESGGGLVQAGGSLRLSCAASGRTLYGYAMGWYRQAPGKERELVAAISKRGTRTYHADSVKGRFTISRDNAKNTVYLQMNSLKPEDTAVYFCGARYPPDEATMEYWGQGTQVTVSS | high polyreactivity |
| QVHLVESVGGLVQAGGSLSLSCAASGLIFDGYAMGWYRQAPGKERDLVAAITWRGGRTYADSVKGRFTISRDNAKNTVYLQMNSLQPEVTAVYYCAVRRWGTSFVEDDYWGQGTQVTVSS | low polyreactivity |
| QVQLVESGGGLVQAGGSLRLSCAASGSTIYPYAMGWYRQAPGKERELVASISGGGSTYYADSVKGRFTISRDNAKNTVYLQMNSLKPEDTAVYYCNAEFDLYWYRYYYWGQGTQVTVSS | high polyreactivity |
| QVQLVESGGGLVQAGGSLRLSCAASGSIFRRNSMGWYRPAPGKERELVAAISSIGSSTYYADSVKGRFTISRDNAKNTVYLQMNSLKPEDTAVYYCAALYVQGSHTYGYWGQGTQVTVSS | high polyreactivity |
| QVQLVESGGCLVQSGGRLRLSCAASGRIFYPYVMGWYRQAPGKEREFVAAITRSGGSTNADSVKGLFTISRDNAKNTVYLLLNSLKPEDTAVYYCARRVNRRYPFYQRDYWGQGTQVTVSS | high polyreactivity |
| QVQLVESGGGLVQAGGSLRLSCAGSGSTFDSYAMGWYRQAPGKERELVAAITRSDASTYYADSVKGRFTISRDNAKNTVYLQMNSLKPEDTAVYYCAADTSLVYYGGDWEYYYWGQGTQVTVSS | low polyreactivity |
| QVQLVESGGGLVQAGGSLRLSCAASGYIFRSYAMGWYRQAPGKERELVAAITRSGGSTYYADSVKGRFTISRDNAKNTVYLQMNSPKPEDTAVYYCAVLPRGSNGMDYWGQGTQVTVSS | low polyreactivity |
| QVQLVESGGGLVQAGGSLRLSCAASGRIFYGYAKGWYRQAPGKERELVASISRRGYSTYYADSVKGRFTISRDNAKNTVYLQMNSLKPEDTAVYYCAAGYYPFNYWCQGTQVTVSS | high polyreactivity |
| QVQLVESGGGLVQAGGSLRLSCAASGSTFPTNTMGWYRQAPGKERELVATIRKSSGRTYYADSVKGRFTISRDNAKNTVYLQMNSLKPEDTAVYYCNARRYSGALRYDYWGQGTQVTVSS | high polyreactivity |
| QVQLVESGGGLVQAGGSLRLSCAASGSIFGPYAMGWYRQAPGKERELVAAITWTGGRTYYADSVKGRFTISRDNAKNTVYLQMNSLKPVDTAVYDCAADYSPSTWYLYYTLYYYWGEGTQVTVSS | low polyreactivity |
| QVQLVDSGGGLVQAGGSLRLSCAASGSIFPSYAIGWYRQAPGKERELVATIGRGGTTNYADSVKGRFTISRDNAKNTVYLQMNSLKPEDTSVYYCNAERIWRYKYGYDYWGQGTQVTVSS | high polyreactivity |
| QVQLVESGGGLVQAGGSLRVSCAAYGRIFLANAMGGYRTAAGKERELVAAISYSGGSTYYADSVKGRFTISRDNAKNTVYLQMNSLKPEDTAVYYCAADAFTWYTGRAWKYYYWGHGTQVTVSS | low polyreactivity |
| QVQLEESGGGLVQAGGSLRLSCAASGRTFSANTMGLYRKATGKERELVAAISKSGGSTYYADSVKGRLTISRDTAKYTVYLQMNSLNPEDTAVYYCAARTSGYWYSYGSWGQGTQVTVSS | high polyreactivity |

| Sequence | polyreactivity (PSR sort gate) |
| --- | --- |
| QVQLLESGGGLVQAGCSLRLSCAASGFTFKSNAMGWYRQAPGKESELVARINRSGGSTYYADSVKGRFTISRYNAKNTVYLQMNSLKPEDTAVYYCARGRYTLYESKYDYWGQGTQVTVSS | high polyreactivity |
| QVQLVESGGGLVQAGGSLRLSCAASGSIFDIYGMGWYRQAPGKERELVASISGGAGSTNYADSVKGRFTISRDNAKNTVYLQMNSLNPEDTAVYYCAAEVYVPDYFQHKFDVEYEYWGQGTQVTVSS | low polyreactivity |
| QVQLVESGGGLVQAGGSLRLSCAPSGRIFPGYAMGWYRQAPGKERELVAAISTNGGRTYYADSVKGRFTISRDNAKNTVYLQMNSLKPEDTAVYYCNAARAVYTQKRFDSWGQGTQVTVSS | high polyreactivity |
| QDQLVESGGGLVQAGGSLRLSCAASGRLIPSYVMGGYRPAQGKETEFVAGIRRGGGSTYYADSVKGRFTISRDNAKNTVYLQMNSLKPEDTAVYYSAAVKYSRPGVYHGHDSWRQGTQVTVSS | high polyreactivity |
| QVQLVESGGGLVQAGGSHRLSCAASGSTFGSNAMGWYRQAPGKERELVAARTIGGSTNYADSVKGRFTISRDNAKNTVYLEMTSLKPEETAVYYCNADPQQSKLWTYFFGFPGYYWGQGTQVTVSS | low polyreactivity |
| QVQLVESGGGLVQAGGSLRLSCAASGSNIGLNAMGWSRQAPGKEREWVAAITRISGRTRYADSVKRRFTISRDNAKNTVSLQMNSLKPEDTAVYYCDARFQSTNGHKYYYWGQGTQVTVSS | high polyreactivity |
| QVQLVESGGGLVQAGGSLRLSCAASGHTLGSYAMGWYRQAPGKERELVAAISSRGGTYYADSVKGRFTISRDNAKNTGYFLMNSLKPDDTAVYYWDAVSGSSKMYYWGQGTQVTVSS | high polyreactivity |
| QVQLVESGGGLVQAGGRLRLSCAASGFTIRLYTMGWYRQAPGKERELVAAITYSGDSTYYADSVKGRFTISRDNAKNTVYLQMNSLKPVDTAVYYCAARKYYARYYWGQGTQVTVSS | high polyreactivity |
| QVQLVESGGGLVQAGGSLRLSCAASGSTFVVNAMGWYRQAPGKERELVAAITQSGGSTFYADSVKGRFTISRDNAKNTVYFQMNSLKPEDTAVYYWGQGTQVTVSS | low polyreactivity |
| QVQLVESGGGLVQAGGSLRLSCAASGRIFFNYAMGWYRQAPGKERELVAAITRSGGRTYYADSVKGRFTISRDNAKNTVYLQMNSLKPEDTAVYYCAADSGSRGSVAHEYWGQGTQVTVSS | high polyreactivity |
| QVQLQESGGGLVQAGGSLRLSCAASGTISVHASMGWYRQAPGKERELVAGITDGANTYYADSVKGRFTISRDNSKNTVYLQMNSLKPEVTAVYYCAAYYGTEVHFTYWGLGTQVTVSS | low polyreactivity |
| QVQLVESGGGLVQAGGSLRLSCAASGRIFPTNAMGWYRQAPGKERELVASITRSGSTYYADSVKGRFTISRDNAKNTVYLQMNSLKPEDTAVYYCAAYAYIFLDWGGYPYYLYEYDYWGQGTQVTVSS | low polyreactivity |
| QVQLVESGGGLVQAGGSLRLSCAASGRIFWANAMGWYRQAPGKERELVATISRSGGTTYYADSVKGRFTISRDNAKNTVYLQMNSLKPEATAVYYCAAEDWSLYDYGDRLWYSPYYYWGQGTQVTVSS | high polyreactivity |
| QVQLVESGGGLVQAGGSLRLSCAASGRIFRAYAMGWYRQAPGKERELVAAISSRGGSTYYADSVKGRFTISRDNAKNTVYLQMNSLKPEDTAVYYCNVDTPFREGSYDYWGQGTQVSVSS | high polyreactivity |
| QVQLVESGGGLVQAGGSLRLSCAASGRTFHFDAMGWYRQAPGKERELVASITWSAVRTYYADSVKGRFTISRDNAKYTVYLQMNSLKQEDTAVYYCAIDWDYRLMDYWGQGTQVTVSS | low polyreactivity |
| QVQLVESGGGLFQAGGSLRLSCAASGIIFVRNAMGWSRQAPGKERELVAAITPSGGSTYYADSVKGRFTISRDNAKNTVYLQMNSLKPEDTAVYYCAAPYRYRSLYDNWGQGSQVTVSS | high polyreactivity |
| QVQRVESGGGLVQAGGRLRLSCAASGFTFFHYAMGRYRQAPGKERELVAAISWSGGTTYYADSVKGRFTISRDNAKNTVYLQMNCLKPEDTAVYYFAADGGLGWRWLPLGYRYGFDYWGQGTQVTVSS | low polyreactivity |
| QVQLVESGGGLVQAGGSLRLSCAASGIIFDEYAMGWYRQAPGKERELVAAITWSGGSTYYADSVKGRFTISRDNAKNTVYLQMNSLKPEDTAVYYCNAVQSDEIAYGDTRLDYWGQGTQVTVSS | low polyreactivity |
| QVQRVESGGGLVQAGGSLRLSCAASGGTFPQYAMGWDRQSHGKETEFVADITSRGGTTYYADSVKGRFTISRDNAKNTVYLQMNSLKPEDTAVNYCAADNPADWWGLDYWGQGTQVTVSS | low polyreactivity |
| QVQLVESGGGLVQAGGSLRLSCAASGSIFYRNAMGWYRQAPGKERELVAAISSDGSTNYADSVKGRFTISRDNAKNTVYLQMNSLKPEDTAVYYCNVPYYLPSYLSGYDYWGQGTQVTVSS | low polyreactivity |
| QVQLVESGGGLVQAGGSLRLSCAASGRTFFYYAMGWYRQATGKERELVAAITSSGGSTNYADSVKGRFTISRDNAKNTVYLQMNSLKPEDTAVYYCNRDRRLNRVPYFDYWGQGTQVTVSS | high polyreactivity |
